In PMC3578862, “Single Residue Mutation in Active Site of Serine Acetyltransferase Isoform 3 from Entamoeba histolytica Assists in Partial Regaining of Feedback Inhibition by Cysteine” (PLoS ONE, 2013) one finds IC50 and Km data, which are given here for three molecules.

In general, IC50 refers to the concentration that gives 50% inhibition. A lower IC50 goes with greater potency in that assay. One may read the Km as the substrate concentration at which the rate is half of its maximum.

The target in series [1] is T1, Serine acetyltransferase isoform 1 (EhSAT1) (Entamoeba histolytica, UniProt Q9U8X2).
T1 construct: gene EhSAT
T1 sequence (Q9U8X2 1-305): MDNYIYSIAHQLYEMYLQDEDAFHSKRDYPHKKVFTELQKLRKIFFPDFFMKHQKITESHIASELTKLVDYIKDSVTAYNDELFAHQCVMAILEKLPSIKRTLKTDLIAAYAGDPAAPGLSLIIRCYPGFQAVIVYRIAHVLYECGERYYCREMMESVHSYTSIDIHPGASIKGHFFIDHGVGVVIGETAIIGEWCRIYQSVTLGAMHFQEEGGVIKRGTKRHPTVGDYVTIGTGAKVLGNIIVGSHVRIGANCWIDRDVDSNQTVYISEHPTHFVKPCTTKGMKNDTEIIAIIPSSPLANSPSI
Briefly: SAT activity assay, acetyl-CoA thioester cleavage at […] nm, […] serine. The class given is biochemical.

Substrate in the series “purified protein”: N[C@@H](CO)C(=O)O
In words: purified protein. The class given is biochemical, Entamoeba histolytica. Conditions: acetyl coenzyme A active site.

As to `N[C@@H](CS)C(=O)O` [L-cysteine], in series [1], the IC50 was determined as 9.59 µM.

B1: Serine acetyltransferase isoform 1 (EhSAT1) (Entamoeba histolytica) (protein)
chain: T1 sequence (Q9U8X2 1-305)
On to B1, for which, in “purified protein” (Asp114, Asp179, His180, His208, Arg222, His223), the Km is 43.5 µM.

B2: Serine acetyltransferase isoform 3 (EhSAT3) (Entamoeba histolytica) (protein)
chain: MSSLLQQTSQLLVQSYQSDNIAFKSTKQFPEKKSFLELELIQKILFPDFFTRRDKRTFNNVLERLSLLVYHIQNSIEAYYNQQLAEKCITALLSQFVTIRELVKQDIIAAYTGDPAASSLAMIIRSYPGIHVMMIQRVAHILYMNGDIEYSRELMENIHSVTGIDIHPGTSIGNHFFIDHGVGVVIGETAVIGNWCRVYQSVTLGAMSFKEDNGIVIKGNKRHPTIGDFVVIGAGAKVLGNITIGSNVKIGANCWITQNIDQDQIVFISEHPSQITKSSTKQSSKDDKIILQSLTENKISEEQENLSWVNSPELLCTYTSEESTPINLDCFVSCQQ
B2: the Km in the series “purified protein” was 52.0 µM.
